Measurements published in US20260167699A1 (Chugai, published 2026).

B1: GpH7-A5/GpH7-B3 variant S267_10E/GpL16-k0 (antibody, human IgG1, kappa)
heavy 1: not shown
heavy 2: not shown
light: DIVMTQSPLSLPVTPGEPASISCQASESLVHSNRNTYLHWYLQKPGQSPQLLIYKVSNRFSGVPDRFSGSGSGTDFTLKISRVEAEDVGVYYCSQNTHVPPTFGQGTKVEIERTVAAPSVFIFPPSDEQLKSGTASVVCLLNNFYPREAKVQWKVDNALQSGNSQESVTEQDSKDSTYSLSSTLTLSKADYEKHKVYACEVTHQGLSSPVTKSFNRGEC
notes: copies: 1 + 1 + 2
B2: GpH7-A5/GpH7-B3 variant S324_10E/GpL16-k0 (antibody, human IgG1, kappa)
heavy 1: not shown
heavy 2: not shown
light: B1 light
notes: copies: 1 + 1 + 2
B3: GpH7-A5/GpH7-B3 variant S337_01G/GpL16-k0 (antibody, human IgG1, kappa)
heavy 1: not shown
heavy 2: not shown
light: B1 light
notes: copies: 1 + 1 + 2
B4: GpH7-A5/GpH7-B3 variant S337_02A/GpL16-k0 (antibody, human IgG1, kappa)
heavy 1: not shown
heavy 2: not shown
light: B1 light
notes: copies: 1 + 1 + 2
B5: GpH7-A5/GpH7-B3 variant S324_09D/GpL16-k0 (antibody, human IgG1, kappa)
heavy 1: not shown
heavy 2: not shown
light: B1 light
notes: copies: 1 + 1 + 2
B6: GpH7-A5/GpH7-B3 variant S324_19Q/GpL16-k0 (antibody, human IgG1, kappa)
heavy 1: not shown
heavy 2: not shown
light: B1 light
notes: copies: 1 + 1 + 2
B7: GpH7-A5/GpH7-B3 variant S298_09D/GpL16-k0 (antibody, human IgG1, kappa)
heavy 1: not shown
heavy 2: not shown
light: B1 light
notes: copies: 1 + 1 + 2
B8: GpH7-A5/GpH7-B3 variant S298_15Y/GpL16-k0 (antibody, human IgG1, kappa)
heavy 1: not shown
heavy 2: not shown
light: B1 light
notes: copies: 1 + 1 + 2
B9: GpH7-A5/GpH7-B3 variant S324_01G/GpL16-k0 (antibody, human IgG1, kappa)
heavy 1: not shown
heavy 2: not shown
light: B1 light
notes: copies: 1 + 1 + 2
B10: GpH7-A5/GpH7-B3 variant S267_19Q/GpL16-k0 (antibody, human IgG1, kappa)
heavy 1: not shown
heavy 2: not shown
light: B1 light
notes: copies: 1 + 1 + 2
B11: GpH7-A5/GpH7-B3 variant S324_11K/GpL16-k0 (antibody, human IgG1, kappa)
heavy 1: not shown
heavy 2: not shown
light: B1 light
notes: copies: 1 + 1 + 2
B12: GpH7-A5/GpH7-B3 variant S324_12R/GpL16-k0 (antibody, human IgG1, kappa)
heavy 1: not shown
heavy 2: not shown
light: B1 light
notes: copies: 1 + 1 + 2
B13: GpH7-A5/GpH7-B3 variant S298_02A/GpL16-k0 (antibody, human IgG1, kappa)
heavy 1: not shown
heavy 2: not shown
light: B1 light
notes: copies: 1 + 1 + 2
B14: GpH7-A5/GpH7-B3 variant S324_18N/GpL16-k0 (antibody, human IgG1, kappa)
heavy 1: not shown
heavy 2: not shown
light: B1 light
notes: copies: 1 + 1 + 2
B15: GpH7-A5/GpH7-B3 variant S298_12R/GpL16-k0 (antibody, human IgG1, kappa)
heavy 1: not shown
heavy 2: not shown
light: B1 light
notes: copies: 1 + 1 + 2
B16: GpH7-A5/GpH7-B3 variant S337_09D/GpL16-k0 (antibody, human IgG1, kappa)
heavy 1: not shown
heavy 2: not shown
light: B1 light
notes: copies: 1 + 1 + 2
B17: GpH7-A5/GpH7-B3 variant S324_14T/GpL16-k0 (antibody, human IgG1, kappa)
heavy 1: not shown
heavy 2: not shown
light: B1 light
notes: copies: 1 + 1 + 2
B18: GpH7-A5/GpH7-B3 variant S298_19Q/GpL16-k0 (antibody, human IgG1, kappa)
heavy 1: not shown
heavy 2: not shown
light: B1 light
notes: copies: 1 + 1 + 2
B19: GpH7-A5/GpH7-B3 variant S324_07I/GpL16-k0 (antibody, human IgG1, kappa)
heavy 1: not shown
heavy 2: not shown
light: B1 light
notes: copies: 1 + 1 + 2
B20: GpH7-A5/GpH7-B3 variant S298_07I/GpL16-k0 (antibody, human IgG1, kappa)
heavy 1: not shown
heavy 2: not shown
light: B1 light
notes: copies: 1 + 1 + 2
B21: GpH7-A5/GpH7-B3 variant S324_02A/GpL16-k0 (antibody, human IgG1, kappa)
heavy 1: not shown
heavy 2: not shown
light: B1 light
notes: copies: 1 + 1 + 2
B22: GpH7-A5/GpH7-B3 variant S324_15Y/GpL16-k0 (antibody, human IgG1, kappa)
heavy 1: not shown
heavy 2: not shown
light: B1 light
notes: copies: 1 + 1 + 2
B23: GpH7-A5/GpH7-B3 variant S298_14T/GpL16-k0 (antibody, human IgG1, kappa)
heavy 1: not shown
heavy 2: not shown
light: B1 light
notes: copies: 1 + 1 + 2
B24: GpH7-A5/GpH7-B3 variant S298_11K/GpL16-k0 (antibody, human IgG1, kappa)
heavy 1: not shown
heavy 2: not shown
light: B1 light
notes: copies: 1 + 1 + 2
B25: GpH7-A5/GpH7-B3 variant S337_04F/GpL16-k0 (antibody, human IgG1, kappa)
heavy 1: not shown
heavy 2: not shown
light: B1 light
notes: copies: 1 + 1 + 2
B26: GpH7-A5/GpH7-B3 variant S337_08L/GpL16-k0 (antibody, human IgG1, kappa)
heavy 1: not shown
heavy 2: not shown
light: B1 light
notes: copies: 1 + 1 + 2
B27: GpH7-A5/GpH7-B3 variant S298_08L/GpL16-k0 (antibody, human IgG1, kappa)
heavy 1: not shown
heavy 2: not shown
light: B1 light
notes: copies: 1 + 1 + 2
B28: GpH7-A5/GpH7-B3 variant S324_03V/GpL16-k0 (antibody, human IgG1, kappa)
heavy 1: not shown
heavy 2: not shown
light: B1 light
notes: copies: 1 + 1 + 2
B29: GpH7-A5/GpH7-B3 variant S337_07I/GpL16-k0 (antibody, human IgG1, kappa)
heavy 1: not shown
heavy 2: not shown
light: B1 light
notes: copies: 1 + 1 + 2
B30: GpH7-A5/GpH7-B3 variant S324_16H/GpL16-k0 (antibody, human IgG1, kappa)
heavy 1: not shown
heavy 2: not shown
light: B1 light
notes: copies: 1 + 1 + 2
B31: GpH7-A5/GpH7-B3 variant S267_18N/GpL16-k0 (antibody, human IgG1, kappa)
heavy 1: not shown
heavy 2: not shown
light: B1 light
notes: copies: 1 + 1 + 2
B32: GpH7-A5/GpH7-B3 variant S324_04F/GpL16-k0 (antibody, human IgG1, kappa)
heavy 1: not shown
heavy 2: not shown
light: B1 light
notes: copies: 1 + 1 + 2
B33: GpH7-A5/GpH7-B3 variant S324_05P/GpL16-k0 (antibody, human IgG1, kappa)
heavy 1: not shown
heavy 2: not shown
light: B1 light
notes: copies: 1 + 1 + 2
B34: GpH7-A5/GpH7-B3 variant S298_04F/GpL16-k0 (antibody, human IgG1, kappa)
heavy 1: not shown
heavy 2: not shown
light: B1 light
notes: copies: 1 + 1 + 2
B35: GpH7-A5/GpH7-B3 variant S324_08L/GpL16-k0 (antibody, human IgG1, kappa)
heavy 1: not shown
heavy 2: not shown
light: B1 light
notes: copies: 1 + 1 + 2
B36: GpH7-A5/GpH7-B3 variant S324_20W/GpL16-k0 (antibody, human IgG1, kappa)
heavy 1: not shown
heavy 2: not shown
light: B1 light
notes: copies: 1 + 1 + 2
B37: GpH7-A5/GpH7-B3 variant S298_18N/GpL16-k0 (antibody, human IgG1, kappa)
heavy 1: not shown
heavy 2: not shown
light: B1 light
notes: copies: 1 + 1 + 2
B38: GpH7-A5/GpH7-B3 variant S298_16H/GpL16-k0 (antibody, human IgG1, kappa)
heavy 1: not shown
heavy 2: not shown
light: B1 light
notes: copies: 1 + 1 + 2
B39: GpH7-A5/GpH7-B3 variant S324_06M/GpL16-k0 (antibody, human IgG1, kappa)
heavy 1: not shown
heavy 2: not shown
light: B1 light
notes: copies: 1 + 1 + 2
B40: GpH7-A5/GpH7-B3 variant S337_03V/GpL16-k0 (antibody, human IgG1, kappa)
heavy 1: not shown
heavy 2: not shown
light: B1 light
notes: copies: 1 + 1 + 2
B41: GpH7-A5/GpH7-B3 variant S298_03V/GpL16-k0 (antibody, human IgG1, kappa)
heavy 1: not shown
heavy 2: not shown
light: B1 light
notes: copies: 1 + 1 + 2
B42: GpH7-A5/GpH7-B3 variant S298_06M/GpL16-k0 (antibody, human IgG1, kappa)
heavy 1: not shown
heavy 2: not shown
light: B1 light
notes: copies: 1 + 1 + 2
B43: GpH7-A5/GpH7-B3 variant S337_06M/GpL16-k0 (antibody, human IgG1, kappa)
heavy 1: not shown
heavy 2: not shown
light: B1 light
notes: copies: 1 + 1 + 2
B44: GpH7-A5/GpH7-B3 variant S298_01G/GpL16-k0 (antibody, human IgG1, kappa)
heavy 1: not shown
heavy 2: not shown
light: B1 light
notes: copies: 1 + 1 + 2

The binders below were run against T1, FcγRIIIa (human, UniProt P08637 17-208) (assay: SPR (Biacore);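 also: antibody variants captured on an SPR sensor chip, with FcγRIIIa passed over as analyte in HBS-EP+ buffer at 25 °C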).
T1 construct: extracellular domain; also called 3a; FcγRIIIa extracellular domain
T1 sequence (P08637 other isoform, or with tags, fused parts or gaps): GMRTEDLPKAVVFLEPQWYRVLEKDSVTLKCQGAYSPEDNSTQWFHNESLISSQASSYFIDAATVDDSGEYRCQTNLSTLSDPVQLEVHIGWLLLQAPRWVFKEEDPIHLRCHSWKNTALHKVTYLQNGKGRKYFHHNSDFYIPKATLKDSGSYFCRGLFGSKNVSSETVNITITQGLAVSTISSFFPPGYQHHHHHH

| He/Con 3a | Binder |
| --- | --- |
| 90.9 % of GpH7-A5/GpH7-B3/GpL16-k0 | B1 |
| 108 % of GpH7-A5/GpH7-B3/GpL16-k0 | B2 |
| 95.2 % of GpH7-A5/GpH7-B3/GpL16-k0 | B3 |
| 92.4 % of GpH7-A5/GpH7-B3/GpL16-k0 | B4 |
| 110 % of GpH7-A5/GpH7-B3/GpL16-k0 | B5 |
| 96.2 % of GpH7-A5/GpH7-B3/GpL16-k0 | B6 |
| 62.7 % of GpH7-A5/GpH7-B3/GpL16-k0 | B7 |
| 80.6 % of GpH7-A5/GpH7-B3/GpL16-k0 | B8 |
| 114 % of GpH7-A5/GpH7-B3/GpL16-k0 | B9 |
| 64.3 % of GpH7-A5/GpH7-B3/GpL16-k0 | B10 |
| 90.2 % of GpH7-A5/GpH7-B3/GpL16-k0 | B11 |
| 98.1 % of GpH7-A5/GpH7-B3/GpL16-k0 | B12 |
| 151 % of GpH7-A5/GpH7-B3/GpL16-k0 | B13 |
| 103 % of GpH7-A5/GpH7-B3/GpL16-k0 | B14 |
| 52.1 % of GpH7-A5/GpH7-B3/GpL16-k0 | B15 |
| 102 % of GpH7-A5/GpH7-B3/GpL16-k0 | B16 |
| 112 % of GpH7-A5/GpH7-B3/GpL16-k0 | B17 |
| 70.6 % of GpH7-A5/GpH7-B3/GpL16-k0 | B18 |
| 101 % of GpH7-A5/GpH7-B3/GpL16-k0 | B19 |
| 90.7 % of GpH7-A5/GpH7-B3/GpL16-k0 | B20 |
| 113 % of GpH7-A5/GpH7-B3/GpL16-k0 | B21 |
| 110 % of GpH7-A5/GpH7-B3/GpL16-k0 | B22 |

| He/Con 3a | Binder |
| --- | --- |
| 106 % of GpH7-A5/GpH7-B3/GpL16-k0 | B23 |
| 50 % of GpH7-A5/GpH7-B3/GpL16-k0 | B24 |
| 94.4 % of GpH7-A5/GpH7-B3/GpL16-k0 | B25 |
| 90.2 % of GpH7-A5/GpH7-B3/GpL16-k0 | B26 |
| 69.2 % of GpH7-A5/GpH7-B3/GpL16-k0 | B27 |
| 101 % of GpH7-A5/GpH7-B3/GpL16-k0 | B28 |
| 88.3 % of GpH7-A5/GpH7-B3/GpL16-k0 | B29 |
| 113 % of GpH7-A5/GpH7-B3/GpL16-k0 | B30 |
| 52 % of GpH7-A5/GpH7-B3/GpL16-k0 | B31 |
| 99.3 % of GpH7-A5/GpH7-B3/GpL16-k0 | B32 |
| 72.3 % of GpH7-A5/GpH7-B3/GpL16-k0 | B33 |
| 77.6 % of GpH7-A5/GpH7-B3/GpL16-k0 | B34 |
| 95.5 % of GpH7-A5/GpH7-B3/GpL16-k0 | B35 |
| 111 % of GpH7-A5/GpH7-B3/GpL16-k0 | B36 |
| 51.4 % of GpH7-A5/GpH7-B3/GpL16-k0 | B37 |
| 71.9 % of GpH7-A5/GpH7-B3/GpL16-k0 | B38 |
| 124 % of GpH7-A5/GpH7-B3/GpL16-k0 | B39 |
| 87.1 % of GpH7-A5/GpH7-B3/GpL16-k0 | B40 |
| 103 % of GpH7-A5/GpH7-B3/GpL16-k0 | B41 |
| 87.2 % of GpH7-A5/GpH7-B3/GpL16-k0 | B42 |
| 89.7 % of GpH7-A5/GpH7-B3/GpL16-k0 | B43 |
| 74.9 % of GpH7-A5/GpH7-B3/GpL16-k0 | B44 |
